Experimental data as given in the RNAGym collection of RNA variant scans (doi:10.1073/pnas.2313332121).
This sample holds only a part of the variants without activity.

B1: TPR 5TU (parent)
chain: GGAUCUUCUCGAUCUAACAAAAAAGACAAAUCUGCCACAAAGCUUGAGAGCAUCUUCGGAUGCAGAGGCGGCAGCCUUCGGUGGCGCGAUAGCGCCAACGUUCUCAACUAUGACACGCAAAACGCGUGCUCCGUUGAAUGGAGUUUAUCAUG

Variants of: B1
Assay: polymerase ribozyme fitness, log enrichment relative to wild type (log ratio); higher = more active; in vitro selection for triplet polymerase activity
In short: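 Fitness compares each genotype's enrichment to that of the wild type on a logarithmic scale, averaging replicates with inverse-variance weights. The logarithm is base 2. Enrichment came from Illumina sequencing of input and output libraries after one triplicate round of in vitro selection, which included frozen incubation at −7 °C, of PCR-built, transcribed mutant libraries of each subunit of a heterodimeric triplet polymerase ribozyme. Only genotypes with ≥10 input reads and ≥1 read per output were kept.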

Variant	polymerase ribozyme fitness (log ratio)
GGAUCUUCUCGAUCUAACAAAAAAGACAAAUCUGCCACAAAGCUUGCGAGCAUCUUCGGAUGCAGAGGCGGCAGCCAUAGGUGGCGCGUUAGCGCCAACGUUCUCAACUAUGACACGCAAAACGCGUGCUCCGUUGAAUGGAGUUUAUCAUG [A47C U77A C79A A89U]	≤ -4.2
GGAUCUUCUCGAUCUAACAAAAAAGACAAAUCUGCCACAAAGCUUGCGAGCAUCUACGGAUGCAGAGGCGGCAGCCUUCGGUGGCGCGAUAGCGCCAACGUUCUCAACUAUGACACGCAAAACGCGUGCUCCGUUGAAUGGAGUUUAUCAUG [A47C U56A]	-0.282
GGAUCUUCUCGAUCUAACAAAAAAGACAAAUCUGCCACAAAGCUUGCGAGCAUCUUCGGAUGCAGAGGCGGCAGCCUUCGGUGGCGCGAUAGCGCCAACGUUCUCAACUAUGACACGCAAAACGCGUGCUCCGUUGAAUGGAGUUUAGCAUG [A47C U148G]	-3.89
GGAUCUUCUCGAUCUAACAAAAAAGACAAAUCUGCCACAAAGCUUGCGAGCAUCUUCGGAUGCAGAGGCGGCAGCCUUCGGUGGCGCGAUAGCGCCAACGUUCUCAACUAUGACACGCAAAACGCGUGCUCCGUUGAAUGGAGUUUAACAUG [A47C U148A]	-3.16
GGAUCUUCUCGAUCUAACAAAAAAGACAAAUCUGCCACAAAGCUUGCGAGCAUCUUCGGAUGCAGAGGCGGCAGCCUUCGGUGGCGCGAUAGCGCCAACGUUCGCAACUAUGACACGCAAAACUCGUGCUCCGUUGAAUGGAGUUUAUCAUG [A47C U104G G124U]	-0.000534
GGAUCUUCUCGAUCUAACAAAAAAGACAAAUCUGCCACAAAGCUUGGGAGCAUCUUCGGAUGCAGAGGCGGCAGCCUUCGGUGGCGCGAUAGCGCCAACGUUCUCAACUAUGACACGCAAAACGCGUGCUCCGUUGAAUGGAGUUUAUCAUG [A47G]	0.239
GGAUCUUCUCGAUCUAACAAAAAAGACAAAUCUGCCACAAAGCUUGGGGGCAUCUUCGGAUGCAGAGGCGACAGCCUUCGGUGGCGUGAUAGCGCCUACGUUCUCGCCUAGGACACGCAAAACGCGUGCUCCGCUGAAUGGAGUUUAUCAUG [A47G A49G G71A C87U A97U A106G A107C U111G U134C]	≤ -4.2
GGAUCUUCUCGAUCUAACAAAAAAGACAAAUCUGCCACAAAGCUUGCGAGCAUCUGCGGAUGCAGAGGCGGCAGCCUUCGGUGGGGCGAUAGCGCCAACGUUCUCAACUAUGACACGUAAUACGCGUGCUCCGUUGAAUGGAGGUUAUCAUG [A47C U56G C85G C118U A121U U144G]	-1.81
GGAUCUUCUCGAUCUAACAAAAAAGACAAAUCUGCCACAAAGCUUGCGAGCAUCUUCGGAAGCAGAGGCGGCAGCCUUCGGUGGGGCGAUAGCGCCAACGUUCUCAAAUAUGACACGCAAAACGCGUGCUCCGUUGAAUGGAGUUUAUCAUG [A47C U61A C85G C108A]	≤ -4.2
GGAUCUUCUCGAUCUAACAAAAAAGACAAAUCUGCCACAAAGCUUGGGAGCAUCUUCGGAUGCAGAGGCGGCAGCCUUCGGUGGCGCGAUGGCGCCAACGUUCUCAACUAUGACACGCAAAACGCGUGCUCCGUUGAAUGGAGUUUAUCAUG [A47G A91G]	-2.73
GGAUCUUCUCGAUCUAACAAAAAAGACAAAUCUGCCACAAAGCUUGCGAGCAUCUCCGGAUGCAGAGGCGGCAGCCUUCGGUGGCGCGAUAGUGCCAACGUUCUCCACUAUGACACGCAAAACGCGUGCUCCGUUGAAUGGAGUUUAUCAUG [A47C U56C C93U A106C]	-4.09
GGAUCUUCUCGAUCUAACAAAAAAGACAAAUCUGCCACAAAGCUUGGGAGUAUCUUCGGAUGCAGAGGCGGCAGUCUUCGGUGGCGCGAUAGCGCAAACGUUUUCAACUAUGACACGCAAAACGCGUGCUCCGUUGAGUGGAGUUUCUCAUG [A47G C51U C75U C96A C103U A138G A147C]	≤ -4.2
GGAUCUUCUCGAUCUAACAAAAAAGACAAAUCUGCCACAAAGCUUGCGAGCAUCUACGGAUGCAGAGGCGGCAGCCUUCGGUGGUGCGAUAGCGCCAACGUUCUCAACUAUGACACGCAAAACGCGUGCUCCGUUGAAUGGAGUUUAUCAUG [A47C U56A C85U]	-0.721
GGAUCUUCUCGAUCUAACAAAAAAGACAAAUCUGCCACAAAGCUUGCGAGCAUCUUCGGAUGCAGAGGCGGCAGCCUUCGGGGGCGCGAUAGCGCCAACGUUCUCAACUGUGACACGCAAAACGCGUGCUCCGUUGAAUGGAGUUUAUCAUG [A47C U82G A110G]	-3.62
GGAUCUUCUCGAUCUAACAAAAAAGACAAAUCUGCCACAAAGCUUGCGAGCAUCUUCGGAUGCAGAGGCGGCAGCCUUCGGUGGCGCGAUAGCGCCAACGUUCGCAACUAUGACACGCAAAACGCGUGCUCCGUUGAAUGGAGUUUAUCAUG [A47C U104G]	-0.804
GGAUCUUCUCGAUCUAACAAAAAAGACAAAUCUGCCACAAAGCUUGCGAGCAUCGCCGGAUGCAGAGGCGGCAGCCUUCGGUGGUGCGAUAGCGCCAACGUUCUCAACUAUGACACGCAAAACGCGUGCUCCCUUGAAUCGAGUUUAUCAUG [A47C U55G U56C C85U G133C G140C]	≤ -4.2
GGAUCUUCUCGAUCUAACAAAAAAGACAAAUCUGCCACAAAGCUUGGGCGCAUCUUCGGAUGCAGAGGCGGCAGCCUUCGGUGGCGCGAUAGCGCCAACGUUCGCAACUAUGACACGCAAAACGCGUGCUCCGUUGAAUGGAGUUUAUCAUG [A47G A49C U104G]	≤ -4.2
GGAUCUUCUCGAUCUAACAAAAAAGACAAAUCUGCCACAAAGCUUGCGAGCAUCUACGGAUGCAGAGGCGGCAGCCUUCGGUGGCGCGAUAGCGCCAACGUUCUCAACUAUGACACGCAAAACGCGUGCUCCGUUGAAUGGAGCUUAUCAGG [A47C U56A U144C U151G]	≤ -4.2
GGAUCUUCUCGAUCUAACAAAAAAGACAAAUCUGCCACAAAGCUUGGGAGCAUCUUCGGAUGCAGAGGCGGCUGCCUUCGGUGGCGCGAUAGCGCCAACGUUCUCAACUAUGACACGCAAAACGCGUGCUCCGUUGAAUGGAGUUUAUCAUG [A47G A73U]	-1.81
